Literature values, collected in patent US20260091141A1, “GENE EDITING METHODS, SYSTEMS, AND COMPOSITIONS FOR TREATING SPINAL MUSCULAR ATROPHY” (The Broad Institute, Inc., priority 2023, published 2026).

System: DNA
Conditions: SpCas9 mutation relative to SEQ ID NO: 209; UniProtKB Q99ZW2 entry

B1: 175-307 deletion: SpCas9 mutation relative to SEQ ID NO: 209 (protein)
chain: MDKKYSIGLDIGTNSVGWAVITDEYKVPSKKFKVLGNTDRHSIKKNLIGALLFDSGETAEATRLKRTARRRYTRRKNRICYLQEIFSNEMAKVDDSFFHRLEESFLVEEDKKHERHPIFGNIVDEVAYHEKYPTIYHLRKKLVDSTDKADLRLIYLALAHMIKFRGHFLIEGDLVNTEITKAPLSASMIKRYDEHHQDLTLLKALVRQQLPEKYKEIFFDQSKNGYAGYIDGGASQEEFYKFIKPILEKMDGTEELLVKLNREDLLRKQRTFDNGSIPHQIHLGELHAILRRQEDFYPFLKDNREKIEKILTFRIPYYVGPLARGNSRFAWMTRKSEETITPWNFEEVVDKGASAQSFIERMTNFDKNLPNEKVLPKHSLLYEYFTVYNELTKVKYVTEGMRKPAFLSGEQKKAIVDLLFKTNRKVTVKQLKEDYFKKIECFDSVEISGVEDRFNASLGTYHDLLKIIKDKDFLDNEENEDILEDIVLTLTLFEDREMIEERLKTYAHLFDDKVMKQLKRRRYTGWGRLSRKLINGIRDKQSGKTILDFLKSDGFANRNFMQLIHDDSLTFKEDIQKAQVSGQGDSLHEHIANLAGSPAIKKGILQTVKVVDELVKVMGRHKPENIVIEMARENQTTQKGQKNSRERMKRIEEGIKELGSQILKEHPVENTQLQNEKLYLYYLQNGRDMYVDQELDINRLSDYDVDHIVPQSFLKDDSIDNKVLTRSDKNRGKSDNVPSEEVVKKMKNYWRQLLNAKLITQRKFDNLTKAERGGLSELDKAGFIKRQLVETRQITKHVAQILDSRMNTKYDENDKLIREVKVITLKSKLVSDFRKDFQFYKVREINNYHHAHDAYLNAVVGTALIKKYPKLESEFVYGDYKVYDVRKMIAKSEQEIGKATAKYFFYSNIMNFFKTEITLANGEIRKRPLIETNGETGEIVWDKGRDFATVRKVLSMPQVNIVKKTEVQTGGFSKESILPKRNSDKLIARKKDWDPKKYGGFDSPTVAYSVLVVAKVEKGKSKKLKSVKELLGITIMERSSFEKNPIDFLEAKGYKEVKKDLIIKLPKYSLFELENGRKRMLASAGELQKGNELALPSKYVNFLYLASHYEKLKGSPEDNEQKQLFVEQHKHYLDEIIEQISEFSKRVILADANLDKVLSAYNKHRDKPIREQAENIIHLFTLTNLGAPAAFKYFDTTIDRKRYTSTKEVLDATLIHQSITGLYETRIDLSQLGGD
modifications: serotype M1; Streptococcus pyogenes
  Function/Characteristic (as reported): About 50% decreased DNA cleavage
